B1: BRCA1-A complex subunit Abraxas 1 (Homo sapiens), Q6UWZ7 (parent)
chain: MEGESTSAVLSGFVLGALAFQHLNTDSDTEGFLLGEVKGEAKNSITDSQMDDVEVVYTIDIQKYIPCYQLFSFYNSSGEVNEQALKKILSNVKKNVVGWYKFRRHSDQIMTFRERLLHKNLQEHFSNQDLVFLLLTPSIITESCSTHRLEHSLYKPQKGLFHRVPLVVANLGMSEQLGYKTVSGSCMSTGFSRAVQTHSSKFFEEDGSLKEVHKINEMYASLQEELKSICKKVEDSEQAVDKLVKDVNRLKREIEKRRGAQIQAAREKNIQKDPQENIFLCQALRTFFPNSEFLHSCVMSLKNRHVSKSSCNYNHHLDVVDNLTLMVEHTDIPEASPASTPQIIKHKALDLDDRWQFKRSRLLDTQDKRSKADTGSSNQDKASKMSSPETDEEIEKMKGFGEYSRSPTF

The test covers variants of B1. Particulars: with brca1_human BRCA1, P38398.
brca1_human BRCA1, P38398, sequence (P38398 whole entry, looked up): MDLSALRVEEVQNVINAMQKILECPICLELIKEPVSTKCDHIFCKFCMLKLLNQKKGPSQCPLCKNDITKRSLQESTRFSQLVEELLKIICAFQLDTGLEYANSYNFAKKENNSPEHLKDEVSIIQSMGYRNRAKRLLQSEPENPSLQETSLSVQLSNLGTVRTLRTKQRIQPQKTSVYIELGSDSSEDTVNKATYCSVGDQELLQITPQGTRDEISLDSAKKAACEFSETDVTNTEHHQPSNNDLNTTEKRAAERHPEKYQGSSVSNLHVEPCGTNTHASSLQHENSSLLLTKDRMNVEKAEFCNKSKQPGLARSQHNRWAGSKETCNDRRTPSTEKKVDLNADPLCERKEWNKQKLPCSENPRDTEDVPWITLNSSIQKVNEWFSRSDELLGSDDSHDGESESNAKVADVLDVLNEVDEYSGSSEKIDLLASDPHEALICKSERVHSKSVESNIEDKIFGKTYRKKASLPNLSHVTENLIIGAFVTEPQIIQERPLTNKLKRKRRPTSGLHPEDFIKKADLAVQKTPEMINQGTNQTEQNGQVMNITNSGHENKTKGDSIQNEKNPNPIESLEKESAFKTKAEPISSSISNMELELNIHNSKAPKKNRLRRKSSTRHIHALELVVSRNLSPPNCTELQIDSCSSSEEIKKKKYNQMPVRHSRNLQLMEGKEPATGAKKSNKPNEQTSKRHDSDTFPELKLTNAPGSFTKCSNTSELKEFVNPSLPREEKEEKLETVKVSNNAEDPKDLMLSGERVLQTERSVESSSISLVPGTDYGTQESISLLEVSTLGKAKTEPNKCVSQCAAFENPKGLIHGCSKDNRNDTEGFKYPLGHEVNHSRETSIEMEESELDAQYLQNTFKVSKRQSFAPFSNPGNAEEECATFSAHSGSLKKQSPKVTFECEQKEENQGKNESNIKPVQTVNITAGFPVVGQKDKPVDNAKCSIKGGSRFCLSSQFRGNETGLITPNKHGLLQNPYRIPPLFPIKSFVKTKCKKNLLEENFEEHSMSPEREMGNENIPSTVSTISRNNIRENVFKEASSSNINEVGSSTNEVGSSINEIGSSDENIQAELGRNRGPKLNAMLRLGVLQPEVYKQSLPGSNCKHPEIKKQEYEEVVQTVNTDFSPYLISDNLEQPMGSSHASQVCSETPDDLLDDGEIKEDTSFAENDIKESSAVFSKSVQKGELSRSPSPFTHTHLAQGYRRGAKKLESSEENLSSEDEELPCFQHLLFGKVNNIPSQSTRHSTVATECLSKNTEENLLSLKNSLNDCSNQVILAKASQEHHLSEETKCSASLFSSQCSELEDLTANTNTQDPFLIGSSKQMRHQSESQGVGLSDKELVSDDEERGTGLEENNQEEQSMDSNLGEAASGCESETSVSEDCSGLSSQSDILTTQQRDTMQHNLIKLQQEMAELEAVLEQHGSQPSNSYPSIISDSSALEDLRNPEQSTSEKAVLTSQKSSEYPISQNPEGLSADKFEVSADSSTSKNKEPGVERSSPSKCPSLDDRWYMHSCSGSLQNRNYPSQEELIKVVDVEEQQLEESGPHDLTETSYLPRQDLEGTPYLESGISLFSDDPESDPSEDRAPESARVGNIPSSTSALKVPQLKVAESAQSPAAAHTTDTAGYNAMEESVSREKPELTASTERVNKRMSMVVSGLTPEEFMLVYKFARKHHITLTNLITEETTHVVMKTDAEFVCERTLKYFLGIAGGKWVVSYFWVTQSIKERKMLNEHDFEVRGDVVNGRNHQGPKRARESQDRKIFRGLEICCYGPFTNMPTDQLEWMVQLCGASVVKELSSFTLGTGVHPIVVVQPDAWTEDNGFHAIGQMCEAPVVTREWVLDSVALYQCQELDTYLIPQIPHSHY
Turning to MEGESTSAVLSGFVLGALAFQHLNTDSDTEGFLLGEVKGEAKNSITDSQMDDVEVVYTIDIQKYIPCYQLFSFYNSSGEVNEQALKKILSNVKKNVVGWYKFRRHSDQIMTFRERLLHKNLQEHFSNQDLVFLLLTPSIITESCSTHRLEHSLYKPQKGLFHRVPLVVANLGMSEQLGYKTVSGSCMSTGFSRAVQTHSSKFFEEDGSLKEVHKINEMYASLQEELKSICKKVEDSEQAVDKLVKDVNRLKREIEKRRGAQIQAAREKNIQKDPQENIFLCQALRTFFPNSEFLHSCVMSLKNRHVSKSSCNYNHHLDVVDNLTLMVEHTDIPEASPASTPQIIKHKALDLDDRWQFKRSRLLDTQDKRSKADTGSSNQDKASKMSSPETDEEIEKMKGFGEYSRAPTF [S406A], the “effect of a mutation on the interaction” value was “decreasing interaction”.

Source of the values: IntAct's records for PubMed 17643121.
